Results from publication PMC12561426, “Dissecting the Interplay Between NRF2 and BACH1 at CsMBEs”.

What was measured:
[1] = molecular target: NRF2 DBD of NRF2-sMafGχ;sMafG DBD of chimeras (Homo sapiens?;Homo sapiens?, UniProt Q16236;O15525 451-567;1-162, |); experiment: EMSA; apparent; TEV and 3C cleaved; 150 mM NaCl, 50 mM HEPES pH 7.9, 10% glycerol, 1 mM TCEP, 1 mM DTT, 2 mM MgCl2; 3 nM DNA; TEV and 3C 50 ug/mL each, 4 h 25 °C; competition then O/N 4 °C; gels 4 °C in 1X TBE; settings: protein: recombinant;recombinant; tags: 3C/TEV-cleavable linker with His tags to sMafG;fused C-terminal of the linker; copies: 1;1; label: 5' fluorescein on forward strand; blunt
[2] = molecular target: BACH1 DBD of BACH1-sMafGχ;sMafG DBD of chimeras (Homo sapiens?;Homo sapiens?, UniProt O14867;O15525 511-627;1-162, |); experiment: as above; settings: protein: recombinant;recombinant; tags: 3C/TEV-cleavable linker with His tags to sMafG;fused C-terminal of the linker; copies: 1;1; label: 5' fluorescein on forward strand; blunt

B1: HMOX1 CsMBE 30-mer (dsDNA)
DNA 1: CTCGGGACCGTGACTCAGCAGGAAAAACAC
DNA 2: GTGTTTTTCCTGCTGAGTCACGGTCCCGAG
Kd [1]: 58 ± 3 nM | Kd [2]: 49 ± 1.9 nM
